Laboratory results as given in US9579358B2, “Compositions for binding to amyloid proteins” (LANCASTER UNIVERSITY BUSINESS ENTERPRISES LIMITED, priority 2011, dated 2017).
Non-standard residues stand in square brackets, D forms with d. Residues, ends and D or L forms follow the SMILES beside them. No end group written: not given here.

Key:
[1] = test system: SHSY-5Y neuroblastoma cells; test: LDH assay, protection against Aβ42-mediated toxicity; type: cell-based; conditions: 5 μM Aβ42 plus 0.1-10 μM peptide, 24 h
Protocol: For cell toxicity assays (Example 3), SHSY-5Y neuroblastoma cells were maintained in 10% Fetal Calf Serum supplemented Dulbecco's Modified Eagle Medium (DMEM, Gibco) under standard mammalian cell culture conditions. The cells were transferred to sterile 96-well growth plates at 20,000 cells/well and 4 wells per condition. To test for any toxic effects of RI-OR2-TAT alone on the cells, they were left to adhere for 24 h before the addition of the inhibitor (at 12.5, 25, 50, 100 and 200 μM), in DMEM. To look at the ability of RI-OR2-TAT to protect against Aβ toxicity, the cell growth medium was changed to Optimem (Invitrogen) and Aβ42, pre-aggregated (at 100 μM) for 24 h at 25° C. in PBS, was added to the cells at a concentration of 5 μM, together with various amounts (0, 0.1, 0.5, 1, 5 or 10 μM) of RI-OR2-TAT. In each case, after a further 24 h incubation period, the viability of the cells was assessed using a CytoTox 96® Non-Radioactive Cytotoxicity Assay (LDH) Assay (Promega) kit.

[2] = Nanoparticle Tracking Analysis (NTA); type: physicochemical
Source text: The particles were investigated by Nanoparticle Tracking Analysis (NTA) which is a method for visualizing and analyzing particles in liquids that can be used to determine the size of individual particles by tracking their rate of Brownian motion.

SHSY-5Y cells = test: MTT cell viability assay, toxicity of PINPs alone; type: cell-based; conditions: 10 μM PINPs, 24 hours
Protocol: SHSY 5Y cells were grown and maintained in DMEM (Dulbecco's Modified Eagle Medium) supplemented with FBS under standard mammalian cell culture conditions. During treatment cells were kept in Optimem plus or minus peptide liposomes in 96 well plates at 20000 cells per well for 24 hours, again under standard culture conditions. For cell protection assays 5 μM of pre-aggregated Aβ1-42 was added at the same time as peptide liposomes. Cell viability was assessed for four wells for each treatment using a Promega CellTiter assay kit.

Aβ42 = target: T1, Aβ42 (Homo sapiens, UniProt P05067); test: Sandwich immunoassay (6E10) for Aβ oligomers; type: biochemical; conditions: Aβ1-42 12.5 μM
T1 construct: Recombinant Aβ42, Ultrapure, was purchased from rPeptide, Bogart, Ga., USA; purchased rPeptide, Bogart, Ga., USA
T1 sequence (P05067 672-713 limits assumed): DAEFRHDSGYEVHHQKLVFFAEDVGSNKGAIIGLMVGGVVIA

Compound: CC(=O)N[C@H](CCCNC(=N)N)C(=O)NCC(=O)N[C@H](Cc1ccccc1)C(=O)N[C@H](Cc1ccccc1)C(=O)N[C@@H](C(=O)N[C@H](CC(C)C)C(=O)N[C@H](CCCCN)C(=O)NCC(=O)N[C@H](CCCNC(=N)N)C(=O)N[C@H](CCCNC(=N)N)C(=O)N[C@H](CCCNC(=N)N)C(=O)N[C@H](CCCNC(=N)N)C(=O)N[C@H](CCC(N)=O)C(=O)N[C@H](CCCNC(=N)N)C(=O)N[C@H](CCCNC(=N)N)C(=O)N[C@H](CCCCN)C(=O)N[C@H](CCCCN)C(=O)N[C@H](CCCNC(=N)N)C(=O)NCC(=O)N[C@H](Cc1ccc(O)cc1)C(N)=O)C(C)C [RI-OR2-TAT, Ac-rGffvlkGrrrrqrrkkrGy-NH2] (Ac-[dR]G[dF][dF][dV][dL][dK]G[dR][dR][dR][dR][dQ][dR][dR][dK][dK][dR]G[dY]-NH2)
- effect on Aβ42 toxicity to cells [1]: inhibits the toxic effects of Aβ42

Compound: PINPs: RI-OR2-TAT covalently attached to nanoliposomes (cholesterol:sphingomyelin [1:1] with 2.5% maleimide) via an additional cysteine (Ac-[dR]G[dF][dF][dV][dL][dK]G[dR][dR][dR][dR][dQ][dR][dR][dK][dK][dR]G[dY][dC]; not fully specified (residue 21); also: C-terminal D-Cys coupled via its thiol to maleimide lipid of nanoliposome)
- average diameter [2]: 130 nm
- toxicity to cells (SHSY-5Y cells): not toxic to cells
- Absorbance units (560 nm) (SHSY-5Y cells; untreated cells 3.608, lysed cells 0.654): 3.610 Absorbance units
- inhibition of oligomer formation (Aβ42; 1:100 molar ratio of PINPS (total lipids):Aβ): still substantial
- immunoassay signal (time-resolved fluorescence, europium) (Aβ42; PINPs 1:1, 0 hours): 9494 relative fluorescence units
- immunoassay signal (time-resolved fluorescence, europium) (Aβ42; PINPs 1:1, 2 hours): 17524 relative fluorescence units
- immunoassay signal (time-resolved fluorescence, europium) (Aβ42; PINPs 1:1, 4 hours): 62958 relative fluorescence units
- immunoassay signal (time-resolved fluorescence, europium) (Aβ42; PINPs 1:1, 8 hours): 116308 relative fluorescence units
- immunoassay signal (time-resolved fluorescence, europium) (Aβ42; PINPs 1:1, 24 hours): 178685 relative fluorescence units
- immunoassay signal (time-resolved fluorescence, europium) (Aβ42; PINPs 1:1, 48 hours): 122098 relative fluorescence units
- immunoassay signal (time-resolved fluorescence, europium) (Aβ42; PINPs 1:10, 0 hours): 9666 relative fluorescence units
- immunoassay signal (time-resolved fluorescence, europium) (Aβ42; PINPs 1:10, 2 hours): 33960 relative fluorescence units
- immunoassay signal (time-resolved fluorescence, europium) (Aβ42; PINPs 1:10, 4 hours): 63899 relative fluorescence units
- immunoassay signal (time-resolved fluorescence, europium) (Aβ42; PINPs 1:10, 8 hours): 77883 relative fluorescence units
- immunoassay signal (time-resolved fluorescence, europium) (Aβ42; PINPs 1:10, 24 hours): 95760 relative fluorescence units
- immunoassay signal (time-resolved fluorescence, europium) (Aβ42; PINPs 1:10, 48 hours): 198806 relative fluorescence units
- immunoassay signal (time-resolved fluorescence, europium) (Aβ42; PINPs 1:50, 0 hours): 7833 relative fluorescence units
- immunoassay signal (time-resolved fluorescence, europium) (Aβ42; PINPs 1:50, 2 hours): 124190 relative fluorescence units
- immunoassay signal (time-resolved fluorescence, europium) (Aβ42; PINPs 1:50, 4 hours): 111776 relative fluorescence units
- immunoassay signal (time-resolved fluorescence, europium) (Aβ42; PINPs 1:50, 8 hours): 177380 relative fluorescence units
- immunoassay signal (time-resolved fluorescence, europium) (Aβ42; PINPs 1:50, 24 hours): 173198 relative fluorescence units
- immunoassay signal (time-resolved fluorescence, europium) (Aβ42; PINPs 1:50, 48 hours): 99592 relative fluorescence units
- immunoassay signal (time-resolved fluorescence, europium) (Aβ42; PINPs 1:100, 0 hours): 3766 relative fluorescence units
- immunoassay signal (time-resolved fluorescence, europium) (Aβ42; PINPs 1:100, 2 hours): 78306 relative fluorescence units
- immunoassay signal (time-resolved fluorescence, europium) (Aβ42; PINPs 1:100, 4 hours): 82278 relative fluorescence units
- immunoassay signal (time-resolved fluorescence, europium) (Aβ42; PINPs 1:100, 8 hours): 141932 relative fluorescence units
- immunoassay signal (time-resolved fluorescence, europium) (Aβ42; PINPs 1:100, 24 hours): 154889 relative fluorescence units
- immunoassay signal (time-resolved fluorescence, europium) (Aβ42; PINPs 1:100, 48 hours): 131004 relative fluorescence units
